# According to article PMC11711546 (2024):
# B1: TSHZ3-HA wild-type (teashirt zinc finger homeobox 3) [human] / MYOCD-Flag (myocardin) [not stated] (parent complex)
# chain 1: MPRRKQQAPRRAAAYVSEELKAAALVDEGLDPEEHTADGEPSAKYMCPEKELARACPSYQNSPAAEFSCHEMDSESHISETSDRMADFESGSIKNEEETKEVTVPLEDTTVSDSLEQMKAVYNNFLSNSYWSNLNLNLHQPSSEKNNGSSSSSSSSSSSCGSGSFDWHQSAMAKTLQQVSQSRMLPEPSLFSTVQLYRQSSKLYGSIFTGASKFRCKDCSAAYDTLVELTVHMNETGHYRDDNHETDNNNPKRWSKPRKRSLLEMEGKEDAQKVLKCMYCGHSFESLQDLSVHMIKTKHYQKVPLKEPVTPVAAKIIPATRKKASLELELPSSPDSTGGTPKATISDTNDALQKNSNPYITPNNRYGHQNGASYAWHFEARKSQILKCMECGSSHDTLQELTAHMMVTGHFIKVTNSAMKKGKPIVETPVTPTITTLLDEKVQSVPLAATTFTSPSNTPASISPKLNVEVKKEVDKEKAVTDEKPKQKDKPGEEEEKCDISSKYHYLTENDLEESPKGGLDILKSLENTVTSAINKAQNGTPSWGGYPSIHAAYQLPNMMKLSLGSSGKSTPLKPMFGNSEIVSPTKNQTLVSPPSSQTSPMPKTNFHAMEELVKKVTEKVAKVEEKMKEPDGKLSPPKRATPSPCSSEVGEPIKMEASSDGGFRSQENSPSPPRDGCKDGSPLAEPVENGKELVKPLASSLSGSTAIITDHPPEQPFVNPLSALQSVMNIHLGKAAKPSLPALDPMSMLFKMSNSLAEKAAVATPPPLQSKKADHLDRYFYHVNNDQPIDLTKGKSDKGCSLGSVLLSPTSTAPATSSSTVTTAKTSAVVSFMSNSPLRENALSDISDMLKNLTESHTSKSSTPSSISEKSDIDGATLEEAEESTPAQKRKGRQSNWNPQHLLILQAQFAASLRQTSEGKYIMSDLSPQERMHISRFTGLSMTTISHWLANVKYQLRRTGGTKFLKNLDTGHPVFFCNDCASQIRTPSTYISHLESHLGFRLRDLSKLSTEQINSQIAQTKSPSEKMVTSSPEEDLGTSYQCKLCNRTFASKHAVKLHLSKTHGKSPEDHLLYVSELEKQ
# chain 2: MTLLGSEHSLLIRSKFRSVLQLRLQQRRTQEQLANQGIIPPLKRPAEFHEQRKHLDSDKAKNSLKRKARNRCNSADLVNMHILQASTAERSIPTAQMKLKRARLADDLNEKIALRPGPLELVEKNILPVDSAVKEAIKGNQVSFSKSTDAFAFEEDSSSDGLSPDQTRSEDPQNSAGSPPDAKASDTPSTGSLGTNQDLASGSENDRNDSASQPSHQSDAGKQGLGPPSTPIAVHAAVKSKSLGDSKNRHKKPKDPKPKVKKLKYHQYIPPDQKAEKSPPPMDSAYARLLQQQQLFLQLQILSQQQQQQQHRFSYLGMHQAQLKEPNEQMVRNPNSSSTPLSNTPLSPVKNSFSGQTGVSSFKPGPLPPNLDDLKVSELRQQLRIRGLPVSGTKTALMDRLRPFQDCSGNPVPNFGDITTVTFPVTPNTLPNYQSSSSTSALSNGFYHFGSTSSSPPISPASSDLSVAGSLPDTFNDASPSFGLHPSPVHVCTEESLMSSLNGGSVPSELDGLDSEKDKMLVEKQKVINELTWKLQQEQRQVEELRMQLQKQKRNNCSEKKPLPFLAASIKQEEAVSSCPFASQVPVKRQSSSSECHPPACEAAQLQPLGNAHCVESSDQTNVLSSTFLSPQCSPQHSPLGAVKSPQHISLPPSPNNPHFLPSSSGAQGEGHRVSSPISSQVCTAQMAGLHSSDKVGPKFSIPSPTFSKSSSAISEVTQPPSYEDAVKQQMTRSQQMDELLDVLIESGEMPADAREDHSCLQKVPKIPRSSRSPTAVLTKPSASFEQASSGSQIPFDPYATDSDEHLEVLLNSQSPLGKMSDVTLLKIGSEEPHFDGIMDGFSGKAAEDLFNAHEILPGPLSPMQTQFSPSSVDSNGLQLSFTESPWETMEWLDLTPPNSTPGFSALTTSSPSIFNIDFLDVTDLNLNSSMDLHLQQW
# B2: TSHZ3-HA wild-type (teashirt zinc finger homeobox 3) [human] / SOX9-Flag (SRY-box transcription factor 9) [not stated] (parent complex)
# chain 1: B1 chain 1
# chain 2: MNLLDPFMKMTDEQEKGLSGAPSPTMSEDSAGSPCPSGSGSDTENTRPQENTFPKGEPDLKKESEEDKFPVCIREAVSQVLKGYDWTLVPMPVRVNGSSKNKPHVKRPMNAFMVWAQAARRKLADQYPHLHNAELSKTLGKLWRLLNESEKRPFVEEAERLRVQHKKDHPDYKYQPRRRKSVKNGQAEAEEATEQTHISPNAIFKALQADSPHSSSGMSEVHSPGEHSGQSQGPPTPPTTPKTDVQPGKADLKREGRPLPEGGRQPPIDFRDVDIGELSSDVISNIETFDVNEFDQYLPPNGHPGVPATHGQVTYTGSYGISSTAATPASAGHVWMSKQQAPPPPPQQPPQAPPAPQAPPQPQAAPPQQPAAPPQQPQAHTLTTLSSEPGQSQRTHIKTEQLSPSHYSEQQQHSPQQIAYSPFNLPHYSPSYPPITRSQYDYTDHQNSSSYYSHAAGQGTGLYSTFTYMNPAQRPMYTPIADTSGVPSIPQTHSPQHWEQPVYTQLTRP
# Variants of: B1
# Experiment: co-immunoprecipitation (anti-HA beads), Western blot densitometry; parent: 1; read off a plot
row,response,Variant
1,~1.6 MYOCD-Flag / TSHZ3-HA in IP,chain 1 P63L
2,~1.9 MYOCD-Flag / TSHZ3-HA in IP,chain 1 S58G
3,~1.5 MYOCD-Flag / TSHZ3-HA in IP,chain 1 A65T

# Variants of: B2
# Experiment: as above
row,response,Variant
1,~0.46 SOX9-Flag / TSHZ3-HA in IP,chain 1 S58G
2,~1.1 SOX9-Flag / TSHZ3-HA in IP,chain 1 P63L
3,~1.4 SOX9-Flag / TSHZ3-HA in IP,chain 1 A65T
